Test results published in publication PMC12518842.

Target: NISTmAb Primary Sample (PS 8670)
Assay: FPLC; mAb sample after buffer exchange; sample buffer 15 mM acetic acid, 40 mM NaCl, pH 5 (ionic strength 50 mM); column and running conditions not told

NISTmAb Primary Sample (PS 8670) (antibody)
percent dimers: < 1%
